The results in this text go back to PMC5080433 (Nature Communications, 2016).

The target of one assay is p97-A232E (human, UniProt P55072 2-806, A232E). In words: SEC. The settings on record: both partners purified.
Assay [1] concerns the target T1, full-length p97 (residues 2–806), purified recombinant (human, UniProt P55072 2-806).
T1 construct: p97 (VCP), human, residues 2-806; Hexamer when alone; in complex with ASPL-C it stands in heterotetramers; also called p97 hexamers; wt p97; source: E. coli BL21 DE3 Rosetta2, purified (Ni-NTA, TEV protease, SEC)
In words: BLI. The settings on record: both partners purified.

B1: ASPL-C (residues 313–553), purified recombinant (domain or fragment)
chain: VDREPVDREPVVCHPDLEERLQAWPAELPDEFFELTVDDVRRRLAQLKSERKRLEEAPLVTKAFREAQIKEKLERYPKVALRVLFPDRYVLQGFFRPSETVGDLRDFVRSHLGNPELSFYLFITPPKTVLDDHTQTLFQANLFPAALVHLGAEEPAGVYLEPGLLEHAISPSAADVLVARYMSRAAGSPSPLPAPDPAPKSEPAAEEGALVPPEPIPGTAQPVKRSLGKVPKWLKLPASKR
Take B1: the binding result with p97-A232E was “binds”.

B2: C-terminally His-tagged full-length ASPL (residues 1–553) (natural protein, human, UniProt Q9BZE9 1-553, looked up)
chain: MAAPAGGGGSAVSVLAPNGRRHTVKVTPSTVLLQVLEDTCRRQDFNPCEYDLKFQRSVLDLSLQWRFANLPNNAKLEMVPASRSREGPENMVRIALQLDDGSRLQDSFCSGQTLWELLSHFPQIRECLQHPGGATPVCVYTRDEVTGEAALRGTTLQSLGLTGGSATIRFVMKCYDPVGKTPGSLGSSASAGQAAASAPLPLESGELSRGDLSRPEDADTSGPCCEHTQEKQSTRAPAAAPFVPFSGGGQRLGGPPGPTRPLTSSSAKLPKSLSSPGGPSKPKKSKSGQDPQQEQEQERERDPQQEQERERPVDREPVDREPVVCHPDLEERLQAWPAELPDEFFELTVDDVRRRLAQLKSERKRLEEAPLVTKAFREAQIKEKLERYPKVALRVLFPDRYVLQGFFRPSETVGDLRDFVRSHLGNPELSFYLFITPPKTVLDDHTQTLFQANLFPAALVHLGAEEPAGVYLEPGLLEHAISPSAADVLVARYMSRAAGSPSPLPAPDPAPKSEPAAEEGALVPPEPIPGTAQPVKRSLGKVPKWLKLPASKR
notes: ASPL, human, residues 1-553; cDNA from the Mammalian Gene Collection; also called ASPL-His; source: E. coli BL21 DE3 Rosetta2, purified (glutathione-Sepharose, TEV cleavage, SEC); not shown: His, C-terminal, kept; GST, N-terminal, cleaved
As usually defined, the Kd is the equilibrium constant for the complex coming apart. For B2, the Kd in assay [1] is roughly 2 nM.
